# Test results reported in IntAct's records for PubMed 23572552.
# B1: Golgi resident protein GCP60 (Homo sapiens), Q9H3P7 (parent)
# chain: MAAVLNAERLEVSVDGLTLSPDPEERPGAEGAPLLPPPLPPPSPPGSGRGPGASGEQPEPGEAAAGGAAEEARRLEQRWGFGLEELYGLALRFFKEKDGKAFHPTYEEKLKLVALHKQVLMGPYNPDTCPEVGFFDVLGNDRRREWAALGNMSKEDAMVEFVKLLNRCCHLFSTYVASHKIEKEEQEKKRKEEEERRRREEEERERLQKEEEKRRREEEERLRREEEERRRIEEERLRLEQQKQQIMAALNSQTAVQFQQYAAQQYPGNYEQQQILIRQLQEQHYQQYMQQLYQVQLAQQQAALQKQQEVVVAGSSLPTSSKVNATVPSNMMSVNGQAKTHTDSSEKELEPEAAEEALENGPKESLPVIAAPSMWTRPQIKDFKEKIQQDADSVITVGRGEVVTVRVPTHEEGSYLFWEFATDNYDIGFGVYFEWTDSPNTAVSVHVSESSDDDEEEEENIGCEEKAKKNANKPLLDEIVPVYRRDCHEEVYAGSHQYPGRGVYLLKFDNSYSLWRSKSVYYRVYYTR
# B2: TBC1 domain family member 22A (Homo sapiens), Q8WUA7 (parent)
# chain: MASDGARKQFWKRSNSKLPGSIQHVYGAQHPPFDPLLHGTLLRSTAKMPTTPVKAKRVSTFQEFESNTSDAWDAGEDDDELLAMAAESLNSEVVMETANRVLRNHSQRQGRPTLQEGPGLQQKPRPEAEPPSPPSGDLRLVKSVSESHTSCPAESASDAAPLQRSQSLPHSATVTLGGTSDPSTLSSSALSEREASRLDKFKQLLAGPNTDLEELRRLSWSGIPKPVRPMTWKLLSGYLPANVDRRPATLQRKQKEYFAFIEHYYDSRNDEVHQDTYRQIHIDIPRMSPEALILQPKVTEIFERILFIWAIRHPASGYVQGINDLVTPFFVVFICEYIEAEEVDTVDVSGVPAEVLCNIEADTYWCMSKLLDGIQDNYTFAQPGIQMKVKMLEELVSRIDEQVHRHLDQHEVRYLQFAFRWMNNLLMREVPLRCTIRLWDTYQSEPDGFSHFHLYVCAAFLVRWRKEILEEKDFQELLLFLQNLPTAHWDDEDISLLLAEAYRLKFAFADAPNHYKK
# B3: Golgi resident protein GCP60 (Homo sapiens), Q9H3P7 (parent)
# chain: B1 chain
# partner: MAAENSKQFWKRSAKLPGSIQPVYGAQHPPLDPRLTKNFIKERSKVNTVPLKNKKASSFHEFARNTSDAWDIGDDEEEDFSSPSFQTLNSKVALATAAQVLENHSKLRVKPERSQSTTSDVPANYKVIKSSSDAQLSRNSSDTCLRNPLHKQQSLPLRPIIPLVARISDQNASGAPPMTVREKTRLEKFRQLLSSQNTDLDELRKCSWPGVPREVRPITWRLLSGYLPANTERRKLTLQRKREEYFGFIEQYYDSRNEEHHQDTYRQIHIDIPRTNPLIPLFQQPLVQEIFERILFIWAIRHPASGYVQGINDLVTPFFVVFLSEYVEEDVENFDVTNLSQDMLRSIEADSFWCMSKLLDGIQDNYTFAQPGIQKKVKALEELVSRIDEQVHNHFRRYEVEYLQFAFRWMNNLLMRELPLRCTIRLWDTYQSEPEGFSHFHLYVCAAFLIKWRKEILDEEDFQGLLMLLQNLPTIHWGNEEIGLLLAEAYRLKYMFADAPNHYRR
# B4: TBC1 domain family member 22B (Homo sapiens), Q9NU19 (parent)
# chain: B3 partner
# B5: Golgi resident protein GCP60 (Homo sapiens), Q9H3P7 (parent)
# chain: B1 chain
# partner: B2 chain
# Variants of: B1
# Conditions: with polg_aiva8 polg
row,Variant,effect of a mutation on the interaction
1,S513A,with no effect
2,F417A;W418A;E419A;F420A,disrupting interaction strength
3,Y512A,decreasing interaction strength
4,F433A;E434A;W435A,disrupting interaction strength
5,Q264A;Q265A;Y266A,with no effect
6,S414A;Y415A;L416A,decreasing interaction strength
7,S511A;Y512A;S513A,disrupting interaction strength
8,H496A,with no effect
9,G494A;S495A;H496A,disrupting interaction strength
10,V256A;Q257A;F258A,with no effect
11,S511A,with no effect
12,E282A;Q283A;H284A;Y285A,with no effect
13,F433A,disrupting interaction strength
14,S344A;S345A,with no effect
15,E434A,with no effect
16,W435A,with no effect

# Variants of: B1
# Conditions: with polg_hkv1 polg
row,Variant,effect of a mutation on the interaction
1,F417A;W418A;E419A;F420A,disrupting interaction strength
2,F433A;E434A;W435A,disrupting interaction strength
3,Q264A;Q265A;Y266A,with no effect
4,K507A;F508A;D509A;N510A,disrupting interaction strength
5,S414A;Y415A;L416A,disrupting interaction strength
6,S511A;Y512A;S513A,disrupting interaction strength
7,G494A;S495A;H496A,disrupting interaction strength
8,V256A;Q257A;F258A,with no effect
9,E282A;Q283A;H284A;Y285A,with no effect
10,S344A;S345A,with no effect

# Variants of: B2
# Conditions: with gcp60_human ACBD3, Q9H3P7
row,Variant,effect of a mutation on the interaction
1,E87A;S88A;L89A,with no effect
2,S165A;S167A,with no effect
3,T149E;S150E,decreasing interaction strength
4,Q320A,with no effect
5,S165E;S167E,with no effect
6,L81A;L82A,with no effect
7,Q107A;R108A;Q109A,with no effect
8,S165A,with no effect
9,S165E,with no effect
10,Q163A;R164A;S165A;Q166A,with no effect
11,S167E,with no effect
12,S132A,decreasing interaction strength

# Variants of: B2
# Conditions: with gcp60_human ACBD3, Q9H3P7
# Remark: another data set of the same source
row,Variant,effect of a mutation on the interaction
1,E92A;V93A,with no effect
2,V101A;L102A,disrupting interaction strength
3,N99A;R100A,with no effect
4,R103A;N104A;H105A,with no effect
5,N90A;S91A;E92A,with no effect
6,V93A;V94A;M95A;E96A,decreasing interaction strength
7,E96A;T97A,with no effect

# Variants of: B3
# Conditions: with tb22b_human TBC1D22B
row,Variant,effect of a mutation on the interaction
1,F433A;E434A;W435A,with no effect
2,V256A;Q257A;F258A,disrupting interaction strength
3,F258A,decreasing interaction strength
4,Q244A,with no effect
5,Y261A,decreasing interaction strength
6,E282A;Q283A;H284A;Y285A,disrupting interaction strength
7,Q260A,with no effect
8,Q286A,with no effect
9,L276A,decreasing interaction strength
10,K243A,with no effect
11,S414A;Y415A;L416A,with no effect
12,S344A;S345A,with no effect
13,Q257A,decreasing interaction strength
14,S511A;Y512A;S513A,with no effect
15,S511A,decreasing interaction strength
16,I246A,decreasing interaction strength
17,F417A;W418A;E419A;F420A,with no effect
18,Q259A,with no effect
19,Y288A,disrupting interaction strength
20,Q253A,with no effect
21,T254A,with no effect
22,Q264A;Q265A;Y266A,with no effect
23,Y285A,decreasing interaction strength
24,Q245A,with no effect
25,H284A,disrupting interaction strength
26,Q287A,with no effect
27,I275A,with no effect
28,G494A;S495A;H496A,with no effect

# Variants of: B3
# Conditions: with tb22b_human TBC1D22B
# Remark: another data set of the same source
row,Variant,effect of a mutation on the interaction
1,Q259A;Q260A;Y261A,with no effect
2,P267A;G268A;N269A,disrupting interaction strength

# Variants of: B4
# Conditions: with gcp60_human ACBD3, Q9H3P7
row,Variant,effect of a mutation on the interaction
1,S116E;T117E;T118E;S119E,with no effect
2,V100A;L101A,disrupting interaction strength
3,E102A;N103A;H104A,with no effect
4,S168E,with no effect
5,K91A;V92A,with no effect
6,L94A;T96A,with no effect
7,S114E,with no effect
8,L88A;N89A;S90A,decreasing interaction strength
9,Q99A,with no effect
10,T143E,with no effect
11,S140E;S141E,with no effect
12,S58E,with no effect

# Variants of: B5
# Conditions: with tb22a_human TBC1D22A
row,Variant,effect of a mutation on the interaction
1,Y270A;E271A;Q272A;Q273A,with no effect
2,R221A;L222A;R223A;R224A,with no effect
3,K209A;E210A;E211A;E212A,with no effect
4,E225A;E226A;E227A;E228A,with no effect
5,I246A;M247A;Q253A;T254A,disrupting interaction strength
6,Q274A;I275A;L276A;I277A,disrupting interaction strength
7,K213A;R214A;R215A;R216A,with no effect
8,Q259A;Q260A;Y261A,decreasing interaction strength
9,R196A;R197A;R198A;R199A,with no effect
10,E184A;E185A;Q186A;E187A,with no effect
11,R204A;E205A;R206A;L207A;Q208A,with no effect
12,P267A;G268A;N269A,disrupting interaction strength
13,E240A;Q241A;Q242A,with no effect
14,I246A;M247A,disrupting interaction strength
15,K188A;K189A;R190A;K191A,with no effect
16,E192A;E193A;E194A;E195A,with no effect
17,L164A;L165A;N166A;R167A,with no effect
18,E200A;E201A;E202A;E203A,with no effect
19,R236A;L237A;R238A;L239A,with no effect
20,C168A;C169A;H170A,with no effect

# Variants of: B5
# Conditions: with tb22a_human TBC1D22A
# Remark: another data set of the same source
row,Variant,effect of a mutation on the interaction
1,G494A;S495A;H496A,with no effect
2,Q264A;Q265A;Y266A,with no effect
3,S344A;S345A,with no effect
